Laboratory results: patent US6423680B1, “Inhibitor of platelet activating factor” (HSC Research and Development Limited Partnership, priority 1998, dated 2002)

Key:
[1] = system: PAF; assay: Calcium release assay in INDO-1 AM-loaded neutrophils; assay type: cell-based, human
Description: Neutrophils were isolated from heparinized venous blood collected from healthy volunteers as previously reported (Laneuville et al., Biochem. J. 295:393-397, 1993). Neutrophils (1 ml, 10^7 cells) were loaded with a […] solution of a fluorescent dye, INDO-1 AM (Calbiochem.) for use in calculating [Ca^2+]i as previously reported (Laneuville et al., supra; Reynaud and Pace-Asciak, Prostaglandins Leukot. Essent. Fatty Acids 56:9-12,1997). For each measurement, 2×10^6 cells were used in 1 ml of cell medium in a temperature-controlled (37° C.) plastic cuvette with continuous stirring. Varying concentrations of functional GM2 activator protein and non-functional truncated GM2 activator protein (i.e. 0, 0.32 and 0.8 nmol) were added to individual cuvettes. Following equilibration of the assay mix, PAF (0.002 nmol) was added and the increase in [Ca^2+]i calculated by a determination of fluorescence. Fluorescence was measured using a Perkin-Elmer fluorescence spectrophotometer as previously reported (Reynaud and Pace-Asciak, supra).
The PAF-response was inhibited by 75% when 800 pmol (15 μg/ml) of activator was present, but not at all in the presence of 800 pmol of the non-functional truncated activator.

[2] = target: T1, GM2 activator protein (Homo sapiens, UniProt P17900); assay: Fluorescence dequenching assay (R-18 transport between liposomes; ligand binding)
T1 construct: ID NO; His6 (N); made in house
T1 sequence (P17900 32-193): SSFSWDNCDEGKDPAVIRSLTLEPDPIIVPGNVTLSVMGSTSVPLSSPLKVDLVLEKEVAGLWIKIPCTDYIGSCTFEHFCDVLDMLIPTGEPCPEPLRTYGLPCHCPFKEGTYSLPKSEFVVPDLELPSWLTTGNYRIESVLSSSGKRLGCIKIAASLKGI
Description: The ability of the activator protein to bind GM2 ganglioside, PAF, N-formyl-Met-Leu-Phe (fMLP), or leukotriene B4 (LTB4) was assessed using a fluorescence dequenching assay. This assay was first used to evaluate the ability of the activator to transport a self-quenching fluorescence dye, R-18 (octadecylrhodamine conjugated to a saturated C-18 hydrocarbon chain) (obtained from Molecular Probes), between labeled and unlabeled liposomes (phosphatidylcholine containing large unilamellar vesicles, PC-LUV8). An increase in fluorescence over time when the activator protein and unlabeled liposomes were admixed with R-18 labeled liposomes indicates the ability of the activator to transport the R-18 dye, the fluorescence of which is proportional to concentration of dye that is transported to the unlabelled liposomes. […]
The R-18 labeled liposomes were prepared as follows. […] The column was then eluted with NHE buffer to yield a quantity of labeled liposomes sufficient for 10 assays.
In each fluorescence dequenching assay, 5 μg of activator protein was mixed with 630 nmol of unlabeled liposomes. […] The rate of increase in fluorescence emission was then determined by monitoring at 590 nm, using an excitation wavelength of 560 nm, on a 650-40 fluorometer (Perkin-Elmer). […]
The fluorescence dequenching of the R-18 liposome preparations was measured and calculated as follows. […]

[3] = target: T2, β-hexosaminidase A (Homo sapiens, UniProt P06865+P07686); assay: Conventional biological assay: co-factor for hydrolysis of GM2 ganglioside by β-hexosaminidase A; assay type: biochemical
T2 sequence (P06865 89-529): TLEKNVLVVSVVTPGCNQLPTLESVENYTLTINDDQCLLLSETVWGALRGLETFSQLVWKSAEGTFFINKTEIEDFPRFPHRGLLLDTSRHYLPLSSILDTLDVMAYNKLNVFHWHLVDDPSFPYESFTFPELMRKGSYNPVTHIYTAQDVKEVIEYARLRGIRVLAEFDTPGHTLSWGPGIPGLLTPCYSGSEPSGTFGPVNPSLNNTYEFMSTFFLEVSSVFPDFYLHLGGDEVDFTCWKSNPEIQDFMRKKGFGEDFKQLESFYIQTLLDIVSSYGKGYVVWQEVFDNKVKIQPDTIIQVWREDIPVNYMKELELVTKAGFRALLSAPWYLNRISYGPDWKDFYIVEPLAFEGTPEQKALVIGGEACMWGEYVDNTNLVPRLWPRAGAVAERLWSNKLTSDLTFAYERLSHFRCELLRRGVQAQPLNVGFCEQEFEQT
T2 sequence (P07686 122-556): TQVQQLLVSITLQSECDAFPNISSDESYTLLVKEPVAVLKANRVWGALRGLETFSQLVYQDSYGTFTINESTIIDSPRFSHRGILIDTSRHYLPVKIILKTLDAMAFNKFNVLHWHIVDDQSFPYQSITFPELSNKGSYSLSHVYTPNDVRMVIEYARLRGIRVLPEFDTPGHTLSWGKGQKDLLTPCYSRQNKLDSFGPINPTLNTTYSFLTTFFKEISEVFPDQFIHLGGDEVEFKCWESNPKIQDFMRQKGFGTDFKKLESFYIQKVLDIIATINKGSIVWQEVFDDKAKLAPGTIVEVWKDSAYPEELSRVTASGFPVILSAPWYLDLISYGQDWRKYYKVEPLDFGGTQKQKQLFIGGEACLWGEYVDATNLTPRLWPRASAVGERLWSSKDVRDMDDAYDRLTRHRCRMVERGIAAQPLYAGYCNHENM
T2 sequence (P17900 32-193 partner): T1 sequence (P17900 32-193)
Text: The conventional biological assay for the GM2 activator involves its function as a substrate specific co-factor for the hydrolysis of GM2 ganglioside by β-hexosaminidase A. This assay (described in detail in Meier et al., J. Biol. Chem., 266:1879-1887, 1991) requires that the activator has a functional hydrophobic binding site.

B1: functional activator: Non-glycosylated GM2 activator protein from His6-tag bacterial expression system, SEQ ID NO: 2 (protein)
chain: MRGSHHHHHHGSIEGRSSFSWDNCDEGKDPAVIRSLTLEPDPIVVPGNVTLSVVGSTSVPLSSPLKVDLVLEKEVAGLWIKIPCTDYIGSCTFEHFCDVLDMLIPTGEPCPEPLRTYGLPCHCPFKEGTYSLPKSEFVVPDLELPSWLTTGNYRIESVLSSSGKRLGCIKIAASLKGI
modifications: His6-tag; non-glycosylated; His tag at residues 1 to 17
[1]; 800 pmol (15 μg/ml) of activator present, PAF 0.002 nmol
  inhibition of PAF-response: 75%
[1]; PAF added to cuvettes containing the functional activator
  release of intracellular calcium pools into the cytosol after PAF: significant decrease
[1]; added to suspension of INDO-1 AM-loaded cells, before PAF
  change in [Ca2+]i on addition of extracellular activator protein alone: did not result in a change in [Ca^2+]i
[2]; 5 μg activator, 37° C., pH 5, increase in fluorescence over time
  transport of R-18 between labeled and unlabeled liposomes: found to transport R-18
[2]; activator in the absence of a ligand compound
  slope of fluorescence dequenching: 0.256 ΔFu/ΔT(min)
[3]
  specific activity as co-factor, compared with wild-type glycosylated precursor activator (CHO cells): functioned in a similar manner to the wildtype activator
